The IC50 is the concentration that gives 50% inhibition.

The values that follow come from US20210300999A1 (published 2021).

The experiment addresses SARS-CoV-2 prefusion-stabilized trimeric spike ectodomain (S2Pecto) (SARS-CoV-2;, UniProt P0DTC2 14-1213; P10104 458-484). Nature of the experiment: ELISA. For orientation: An ELISA detects its analyte on a solid surface through an enzyme-linked reagent.

B1: COV2-2196 (antibody, V domains shown)
VH: QMQLVQSGPEVKKPGTSVKVSCKASGFTFMSSAVQWVRQARGQRLEWIGWIVIGSGNTNYAQKFQERVTITRDMSTSTAYMELSSLRSEDTAVYYCAAPYCSSISCNDGFDIWGQGTMVTVSS
VL: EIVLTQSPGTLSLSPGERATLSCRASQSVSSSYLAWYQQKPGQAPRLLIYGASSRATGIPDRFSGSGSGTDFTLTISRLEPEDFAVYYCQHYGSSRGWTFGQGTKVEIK
Molecule B1 gave a half-inhibitory concentration (IC50) of 0.058 µg/mL.
